In the supplement of paper PMC9942255:
Where “and” joins values, the source holds several entries; their conditions need not be identical. Equal entries are not always repeated.

Test system: Bacillus subtilis DB104 (SP-AmyQ fusion secretion)
Test: AmyQ secretion efficiency, weighted average sort bin (1 = best secretion, 10 = worst) (bin number (weighted average, 1-10)); higher = lower secretion efficiency
Method in brief: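 The secretion score gives the average bin number weighted by read frequency and normalised to beads per bin, with low-abundance sequences excluded. Bins were 10 equally populated green/red fluorescence ratio fractions of occupied ~65 nL alginate beads, sorted by large-particle flow cytometry. The beads held fluorescein-starch and about 0.3 cells each of an amyE-integrated B. subtilis DB104 library fusing designed signal peptides to mature AmyQ, and they were grown about 13 h at room temperature and stained with nile red before sorting and Illumina sequencing.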

Sequence	AmyQ secretion efficiency
MRKKRVITCVMAASLTLGPAGYATAKED	2.6
MHLIRAKKRKCRAVVLIAGCRFNEDQHQAEGENT	5.77
MPYLKRVLLLLVTGLFMSLFAVTATSSAQTG	1.26
MGLGKKNLNTMFLSVAVAASFMSLSISLPGVQAAEG	2.66
MKVPKTMLLSTAAGLLLSLTVSAHYV	5.02
MLFIFVITCVMAASLTLGSLLPAGYATAKED	4.43
MKNMSCKLVVSVTLFFSFLTIGPLAHADDE	3.5
MRSYIKVLTMCFLGLILFVPTALCDNS	3.89
MLTKRLLTIYIMLLGLIFLVALAWFPGAAQAEEK	4.8
MKKGIIRFLLVSFVLFFALSTGITGVQHAPA	5.62
MLKKKWMTRGLAGCLAAGGFSYNAFATEN	6.77
MKSCKQLIVCSLAAILLLLSLTFIPSVSFAADS	3.91
MRKKRVITCVMAASLTLGSLLPAGYASFKED	3.82
MRKTIFAFLTGLMMFEDDEEDASASPD	5.45
MKRLFMKAKLVLFAVVFVFAVKGAPAKAETH	2.67
MAIIIAIIAAVIVIAALITFNVRNWSPG	8.18
MRKRRTIFAFLTGLMMFGTITAASASPD	4.74
MIKAAAVLLSLGLVFGFSYGAGHVAEAKTK	2.3
MKRKLLSSLAISALSLGSAPTASFAAES	3.3
MKRSSGKQLIGIMLLTFAPSAFAKQD	3.5
MKLWMRKTLVVLFTIVTFGLVSPPAALMVDKP	2.11
MSLNKRVSMFLVALTMCGGLFVTPAKAVKT	2.92
MKKVLMAFIICLSLILSVLAAPPSGKKAESV	8.34
MLCVMMLLFSAIASFPVSLQAKDQ	5.46

Sequence	AmyQ secretion efficiency
MKKWMITIAMLILAGIALFVFISPWKSHKT	6.16
MKLSVKIAGVLTVAAAAMSTAKMYATAKGN	7.14
MKKRLIGFLVLVPALIMSGITLLEANKK	6.63
MKRTWNVCLTALLSVLLVAGSVGFVAEAKKP	3.4
MKKTIMSFVAVAALSTGAHASAKEI	2.46
MKRFLIGAGVAAVILSGWFIADHQFHSQEM	5.93
MKKQIITATTAVVLGSTLFAGAGSAQSI	1.62
MKKIMSARKRRRKLTIFCFSPQASAAYD	6.63
MKKGIIRFRRKKFVLFFALSTGITGVQAAPA	4.49
MLKKKWMVGLLAGCLAAGGFSYNAFATPR	3.48
MKSKGSIMACLILFSFTITTFINTETHSAFSN	7.73
MKKWIYVVLVLSIAGIGGFSVHTASS	6.85
MKKRLIAPMLLSAASLAFFAMAQAAAY	6.11
MAIIIAIIAAVIVIAALITFNVRNASKR	7.12
MFNRLFRVCFLAALIMAFSSSSLFISLVTLPNSVYAQKP	4.04
MKKWIYVVLVLSIAGIGGFSVHCASS	6.47
MKVLLSALLLLLFAEASGKKL	6.56
MKQRKRVSALTPSTTLAITAKAKEL	7.26
MNLRKILLSSALSLGMLVVSAAPVLATSS	1.4
MGLGKKLSVAVAASFMSLSISLPGVQSAEG	3.87
MKRFILVLSFLSIIVAYPIQINASPM	2.47
MRNLTKTSLLLAGLCTAAQMVFVTHASAAKR	2.59
MRFTKVVGFLSVLGLAAVFPLTTQAEKA	4.74
MKTKTLFIFSAILTLSIFAPNEMFAQTA	1.9

Sequence	AmyQ secretion efficiency
MKKKQVMLALTAAAGLGLTALHSAPAAKGAPL	3.51
MKKIWIGMLAAAVLLLRKRKKKSLADAA	6.58
MLKKKWMVKRLAGCLAAGGFSYNAFATEN	7.03
MRSKKLWISLLFALTLIFTMAFSNMSAQAAGQ	2.13
MNLRKILLSSALSLGMLVSAAPVLGTSS	4.45
MIVIILLFISIIVFLKRKKKKIQPQPS	8.16
MRKKRVITCVMAASLTLGSLLRKRKKRASAKED	6.48
MRKRLFRVCFLAALIMAFTLPNSVYAQKP	2.73
MKLSVKIAGVLTVAAAAMTAKMYVTAKGN	8.14
MFKKLLLATSALTFSLSLVLEEDDHAKAQEV	3.32
MPIKKKVMMCLAVTLVFGSMRKRRRKNSGGFKE	8.69
MKRLLVSLRVWMVFLMNWVTPDRKTAAAAKK	7.3
MNKFLKSNFRFLLAAALGISLLVLFVIFITFASSNFIKASND	4.18
MKLAKRTSALTPSTTLAITAKAKEL	6.93
MLGMGWMVGLLAGCLAAGGFSYNAFATEN	6.54
MFNRLFRVCFLAALIMAFVFTLPNSVYAQKP	2.33
MKGWMRTTLVVLFTIVTFGLVSPPAALMADKP	7.14
MRKRKKRTIFAFLTGLMMFGTITAASASPD	5.69
MKKWLIIAVSLAIMYTKGEAKAAGM	2.92
MRIFKKAVFVIMISFLIATVNVNTAHAAID	3.53 and 3.56 and 3.38
MKRKRLLSSLAISALSLGLLVSAPTASFAAES	2.64 and 3.51
MKSKGSIMACLILFSFTITTFINTETGSAFSN	5.58
MGLGKKLSVAVAASFMSLSISLPGLQAAEG	1.65
MRSYIKVLTMCFLGLILFVEEDALADNS	2.58

Sequence	AmyQ secretion efficiency
MHLIRAAGAVCLAVVLIAGCRFNEDQHQFEGENT	5.53
MLTKRQLTIYIMLLGLIAWFPGAAQAEEK	2.9
MKKKQVMTLNSSLALTAAAGLGLTALHSAPAAKAAPL	4.06
MLKKKWMVGLLAGCLAAGGFSYNAFPTEN	5.71
MLYLKRVLLLLVTGLFMSLFAVTATASAQTG	1.49
MKRMIVRMTLPLLIVCLAFSSFSASTRAASE	2.26
MKRLLSTLLIGIMLLKRKRRRAFAKQD	8.09
MKKKLAAGLTASAIVGTTLVVTPAEVATI	6.56
MLKKIALTLCPAIVGSLLFFTVAPASAHVS	3.73
MNKLKRLSMLTVMIASVFIFSSHSLAAQY	2.4
MKRYKQRLRVWMVFLMNWVTPDRKTAAAAVY	6.82
MKKVGLLAGCLAAGGFSYNAFATEN	6.86
MKSLPYTIALLFCGLIIVSMAAKGHED	7.33
MKRTWNGCGQGQLSVLLVAGSVPFHAEAKKP	2.05
MKKTIMSFVAVAALSTTAFGAHASWKEI	6.56
MYKKFVPFRRRKKRFFVSFEMMENPHALDY	7.64
MKKCLLFLTTIALILSLSTNAFAANR	1.56
MNLRKILLSSALSLGMLVSAAPVLLTSS	7.26
MKLAKRVSALTPSTTLAITAKAAPD	7.89
MLKKKWMVGLLAGCLAAGGFSYNMFATEN	6.41
MKKGIRFLLVSFVLFFALSTGITGVQAAPA	2.35
MKRKLLSSLAISALSLGLLVSAPTAWFAAES	9.22
MKKWIYVVLVLSIAGIGGISVSAFSVHAASS	5.09
